{"source": "paper PMC2154361", "target": "RIM1α C2B domain", "experiment": "AUC"}
{"substance": "RIM1α C2B domain (domain or fragment)", "values": [{"measurement": "Kd", "value": 90, "unit": "µM"}, {"measurement": "stoichiometry N", "value": 2}]}
